Experimental data published in paper PMC9527590, “Functional analysis of the N‐terminal region of acetylxylan esterase from Caldanaerobacter subterraneus subsp. tengcongensis” (FEBS Open Bio, 2022).

What was measured:
[1] = molecular target: TTE^Δ110, TTE0866 with the N-terminal 110 residues truncated (Caldanaerobacter subterraneus subsp. tengcongensis); assay: SEC; analytical SEC, Superdex 75 Increase 10/300 GL; 100 μL of protein solution (1.0 mg·mL^−1); 20 mM Tris–HCl (pH 8.0), 150 mM NaCl; masses from a calibration standard; self-association, dimer to monomers
[2] = as above

Substance	stoichiometry N [1]	percent dimer (SEC peak area) [2]
TTE^Δ110, TTE0866 with the N-terminal 110 residues truncated (domain or fragment)	2	
TTE^Δ110, TTE0866 with the N-terminal 110 residues truncated		the dimer‐to‐monomer percentage of TTE^Δ110 was 20% and 80%
